From PMC10823254 (Proceedings of the National Academy of Sciences of the …, 2024) come the findings set out here.

In the test the target is T1, PilO-C (H. pylori).
T1 chain: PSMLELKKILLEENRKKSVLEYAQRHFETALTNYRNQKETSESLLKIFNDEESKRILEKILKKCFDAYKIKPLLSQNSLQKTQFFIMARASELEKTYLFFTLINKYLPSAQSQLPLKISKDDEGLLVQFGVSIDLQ
Description: SPR. (In general: Surface plasmon resonance follows binding to a sensor surface in real time, without labels.)

B1: PilN-C (domain or fragment)
chain: HNAIKSTQDNASSLTIQERLYRHEISRLQVKTDETLKLIKEAKKRLNYNDDIRDVLQGLLNIVPDSITINSIEIDQQSVVVSGKTPSKEAFYFLFQNKLNPMFDYSRAEFFPLSDGWFNFVSTNFSNSLLIKNPESIK
Regarding B1, the Kd was found to be 3.1 ± 1 µM.

Usually Kd stands for the free concentration of one partner at which half of the binding sites on the other are occupied at equilibrium, for simple one-to-one binding.
